# Assay results from paper PMC10931773.
# T1: C-reactive protein (recombinant human CRP) (human) (UniProt P02741)
# T1 sequence: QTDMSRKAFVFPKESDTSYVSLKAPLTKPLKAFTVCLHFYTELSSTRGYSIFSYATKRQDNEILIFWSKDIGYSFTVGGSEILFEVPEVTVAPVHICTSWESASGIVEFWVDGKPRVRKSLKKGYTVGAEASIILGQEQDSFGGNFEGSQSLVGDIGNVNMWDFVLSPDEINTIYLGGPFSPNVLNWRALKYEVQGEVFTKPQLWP
# B1: anti-CRP single-chain variable fragment (scFv) (scFv, V domains shown)
# VH: QVQLQQSGAELVKPGASVKLSCTASGFNIKDYYMHWVKQRTEQGLEWIGRIDPEDGETKYAPKFQGKATITADTSSNTAYLQLSSLTSEDTAVYYCARGYYGSEAMDYWGQGTSLTVSS
# VL: SIVMTQSHKFMSTSVGDRVSITCKASQDVNTAVAWYQQKPGQSPKLLIYWASTRHTGVPDRFTGSGFGTDYTLTISSVQAEDLALYYCQQHYSTPWTFGGGTKLEIK
# B2: anti-CRP scFv-SpyTag (scFv, V domains shown)
# VH: QVQLQQSGAELVKPGASVKLSCTASGFNIKDYYMHWVKQRTEQGLEWIGRIDPEDGETKYAPKFQGKATITADTSSNTAYLQLSSLTSEDTAVYYCARGYYGSEAMDYWGQGTSLTVSS
# VL: SIVMTQSHKFMSTSVGDRVSITCKASQDVNTAVAWYQQKPGQSPKLLIYWASTRHTGVPDRFTGSGFGTDYTLTISSVQAEDLALYYCQQHYSTPWTFGGGTKLEIK
# B3: monovalent antibody-enzyme complex (anti-CRP scFv-ST joined to GDH-SC) (complex)
# VH: QVQLQQSGAELVKPGASVKLSCTASGFNIKDYYMHWVKQRTEQGLEWIGRIDPEDGETKYAPKFQGKATITADTSSNTAYLQLSSLTSEDTAVYYCARGYYGSEAMDYWGQGTSLTVSS
# VL: SIVMTQSHKFMSTSVGDRVSITCKASQDVNTAVAWYQQKPGQSPKLLIYWASTRHTGVPDRFTGSGFGTDYTLTISSVQAEDLALYYCQQHYSTPWTFGGGTKLEIK
# Biological target: T1, C-reactive protein (recombinant human CRP) (human)
# Test: SPR; Biacore T200; CRP immobilised on a CM5 chip by amine coupling (1074 RU); antibodies 0.50-75 nM injected at 30 µL/min, association and dissociation 120 s; 1:1 Langmuir global fit
Binder,Kd [nM],koff [s⁻¹],kon [M⁻¹ s⁻¹]
B1,4.8,0.0016,350000
B2,5,0.0017,340000
B3,28.7,0.0019,67000
